Test results from doi:10.1101/2021.05.24.445460 (bioRxiv, 2021).

Target: repeat-domain of Tau (Tau^RD) (human, UniProt P10636-8 244-373)
Assay: co-IP

repeat-domain of Tau (Tau^RD), sequence (P10636 561-690): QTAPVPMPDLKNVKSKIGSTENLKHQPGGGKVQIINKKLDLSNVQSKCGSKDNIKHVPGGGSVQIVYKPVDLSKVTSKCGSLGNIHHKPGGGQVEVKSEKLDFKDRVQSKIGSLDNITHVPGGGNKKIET

B1: microglial P2Y12 receptor (receptor, mouse (endogenous in N9), UniProt Q9CPV9 1-347, looked up)
chain: MDVPGVNTTSANTTFSPGTSTLCVRDYKITQVLFPLLYTVLFFAGLITNSLAMRIFFQIRSKSNFIIFLKNTVISDLLMILTFPFKILSDAKLGAGPLRTLVCQVTSVTFYFTMYISISFLGLITIDRYLKTTRPFKTSSPSNLLGAKILSVVIWAFMFLISLPNMILTNRRPKDKDVTKCSFLKSEFGLVWHEIVNYICQVIFWINFLIVIVCYSLITKELYRSYVRTRGSAKVPKKKVNVKVFIIIAVFFICFVPFHFARIPYTLSQTRAVFDCSAENTLFYVKESTLWLTSLNACLDPFIYFFLCKSFRNSLTSMLRCSNSTSTSGTNKKKGQEGGEPSEETPM
B1 was tested, and the “fold band intensity against cell control, 1 uM Tau^RD” value was 1.2 fold and the “fold band intensity against cell control, 5 uM Tau^RD” value was 2 fold.
